Measured values taken from article doi:10.1101/2022.04.18.488652 (bioRxiv, 2022).

B1: NaKΔ18 (domain or fragment, B. cereus)
chain: WKDKEFQVLFVLTILTLISGTIFYSTVEGLRPIDALYFSVVTLTTVGDGNFSPQTDFGKIFTILYIFIGIGLVFGFIHKLAVNVQLPSILSNRKKE
B2: NaKΔ18 L35A (domain or fragment, B. cereus, UniProt Q81HW2 19-114, looked up)
chain: WKDKEFQVLFVLTILTAISGTIFYSTVEGLRPIDALYFSVVTLTTVGDGNFSPQTDFGKIFTILYIFIGIGLVFGFIHKLAVNVQLPSILSNRKKE
B3: NaKΔ18 L61T (domain or fragment, B. cereus, UniProt Q81HW2 19-114, looked up)
chain: WKDKEFQVLFVLTILTLISGTIFYSTVEGLRPIDALYFSVVTTTTVGDGNFSPQTDFGKIFTILYIFIGIGLVFGFIHKLAVNVQLPSILSNRKKE
B4: NaKΔ18 L35A+L61A (domain or fragment, B. cereus, UniProt Q81HW2 19-114, looked up)
chain: WKDKEFQVLFVLTILTAISGTIFYSTVEGLRPIDALYFSVVTATTVGDGNFSPQTDFGKIFTILYIFIGIGLVFGFIHKLAVNVQLPSILSNRKKE
B5: NaKΔ18 L61A (domain or fragment, B. cereus, UniProt Q81HW2 19-114, looked up)
chain: WKDKEFQVLFVLTILTLISGTIFYSTVEGLRPIDALYFSVVTATTVGDGNFSPQTDFGKIFTILYIFIGIGLVFGFIHKLAVNVQLPSILSNRKKE

Biological target: the molecule itself
Test: SEC

Stoichiometry N, 4:
B1
B2
B3
B4
B5
